As usually defined, the Kd is the concentration at which binding is half-saturated. The low end stands for higher affinity, the high end for lower affinity.

In test [1] the target is T1, human CTLA4 (human).
T1 construct: also called hCTLA4; hCTLA4-His-BAP
In words: SPR, 37C, antibody captured by anti-mouse IgG, ATP 1 uM. In general terms: Surface plasmon resonance follows binding to a sensor surface in real time, without labels.
Method: (§1) 20 mM ACES (pH 7.4), 150 mM NaCl, 2 mM MgCl₂, 0.05% Tween 20 with ATP added to the desired concentrations was used as the running buffer, and the assay was performed at 37° C. First, Rabbit Anti-Mouse IgG (Thermo Fisher Scientific) was immobilized onto Series S Sensor Chips CM5 (GE Healthcare), and the antibody was captured onto the chip by interacting an antibody solution prepared in an ATP-free running buffer. Next, the binding ability of the antibody to human CTLA4 in the presence or absence of ATP was evaluated by interacting with a human CTLA4 solution prepared in a running buffer with ATP added to the desired concentration, or a human CTLA4 solution prepared in an ATP-free running buffer. Chips were regenerated with 25 mM NaOH and 10 mM Glycine-HCl (pH 1.5) and assay was performed by repeatedly capturing antibodies. The dissociation constant of each antibody for CTLA4 was calculated using Biacore T200 Evaluation Software 2.0. Specifically, the binding rate constant ka (L/mol/s) and the dissociation rate constant kd (1/s) were calculated by global fitting of the sensorgrams obtained by the measurement using the 1:1 Langmuir binding model, and the dissociation constant KD (mol/L) was calculated from those values.

Test [2] concerns the target T1, human CTLA4. In words: SPR, 37C, antibody captured by anti-mouse IgG, ATP 10 uM.
Method: as §1
Test [3] deals with T1, human CTLA4. In words: SPR, 37C, antibody captured by anti-mouse IgG, ATP 100 uM.
Method: as §1

T1 sequence (chain, as listed by the source limits assumed): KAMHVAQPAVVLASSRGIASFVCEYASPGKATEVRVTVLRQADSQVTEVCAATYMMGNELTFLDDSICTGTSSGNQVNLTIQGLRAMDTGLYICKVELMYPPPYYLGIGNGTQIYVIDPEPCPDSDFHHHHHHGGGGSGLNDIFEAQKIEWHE

B1: 04H1389-mFa55/04L1615-mk1 (antibody, mouse IgG2a, kappa)
heavy: EVQLVESGGGLVKPGGSLRLSCAASGFTFSSKTMNWVRQAPGKGLEWVSSISTQSHYIYYAESVKGRFTISRDNAKNSLYLQMNSLRAEDTAVYYCARYGKREDMLWVFDYWGQGTLVTVSSAKTTAPSVYPLAPVCGDTTGSSVTLGCLVKGYFPEPVTLTWNSGSLSSGVHTFPAVLQSDLYTLSSSVTVTSSTWPSQSITCNVAHPASSTKVDKKIEPRGPTIKPCPPCKCPAPNLLGGPDVFIFPPKIKDVLMISLSPIVTCVVVDVSEDDPDVQISWFVNNVEVHTAQTQTHREDYNSTLRVVSALPIQHQDWMSGKEFKCKVNNKDLPAPIERTISKPKGSVRAPQVYVLPPPEEEMTKKQVTLTCMVTDFMPEDIYVEWTNNGKTELNYKNTEPVLDSDGSYFMYSKLRVEKKNWVERNSYSCSVVHEGLHNHHTTKSFSRTPGK
light: DIVMTQSPLSLPVTPGEPASISCQGPSTGVGDYNYVHWYQQKPGQAPRLLIYFTSKKPSGVPDRFSGSGSGTDFTLKISRVEAEDVGVYYCQTYAAPLGPMFGQGTKLEIKRADAAPTVSIFPPSSEQLTSGGASVVCFLNNFYPKDINVKWKIDGSERQNGVLNSWTDQDSKDSTYSMSSTLTLTKDEYERHNSYTCEATHKTSTSPIVKSFNRNEC
notes: Mouse constant regions mFa55 and mk1; also called SW1615-mFa55
Consider B1, for which the Kd in test [1] is 45 nM; in test [2], 15 nM; in test [3] it was 8.7 nM.

B2: 04H1654-mFa55m2P1/04L1610-ml0r (antibody, mouse IgG2a)
heavy: QVQLVESGGGVVQPGGSLRLSCAASGFTFSSKTMNWVRQAPGKGLEWVSSISTQSHYIYYARSVRGRFTISRDNAKNSLYLQMNSLRAEDTAVYYCARYGKREDMLWVFDYWGQGTLVTVSSAKTTAPSVYPLAPVCGDTTGSSVTLGCLVKGYFPEPVTLTWNSGSLSSGVHTFPAVLQSDLYTLSSSVTVTSSTWPSQSITCNVAHPASSTKVDKKIEPRGPTIKPCPPCKCPAPNLLGGPDVFIFPPKIKDVLMISLSPIVTCVVVDVSEDDPDVQISWFVNNVEVHTAQTQTHREDYNSTLRVVSALPIQHQDWMSGKEFKCKVNNKDLPAPIERTISKPKGSVRAPQVYVLPPPEEEMTKKQVTLTCMVTDFMPEDIYVEWTNNGKTELNYKNTEPVLRSDGSYFMYSKLRVEKKNWVERNSYSCSVVHEGLHNHHTTKSFSRTPGK
light: QSALTQPPSASGSPGQSVTISCEGPSTGVGDYNWVHWYQQHPGKAPKLMIYFTSKKPSGVPDRFSGSKSGNTASLTVSGLQAEDEADYYCQTYAAPLGPMFGGGTKLTVLGQPKSSPSVTLFPPSSEELETNKATLVCTITDFYPGVVTVDWKVDGTPVTQGMETTQPSKQSNNKYMASSYLTLTARAWERHSSYSCQVTHEGHTVEKSLSRADCS
notes: Mouse constant regions; also called one arm of SW1610-mFa55
Take B2: the values for the Kd in test [1], in test [2] and in test [3] were 58 nM, 17 nM and 8.5 nM, respectively.

B3: 04H1656-mFa55m2N1/04L1610-ml0r (antibody, mouse IgG2a)
heavy: QVQLVESGGGVVQPGGSLRLSCAASGFTFSSKTMNWVRQAPGKGLEWVSSISTQSHYIYYAESVRGRFTISRDNAKNSLYLQMNSLRAEDTAVYYCARYGAREDMLWVFDYWGQGTLVTVSSAKTTAPSVYPLAPVCGDTTGSSVTLGCLVKGYFPEPVTLTWNSGSLSSGVHTFPAVLQSDLYTLSSSVTVTSSTWPSQSITCNVAHPASSTKVDKKIEPRGPTIKPCPPCKCPAPNLLGGPDVFIFPPKIKDVLMISLSPIVTCVVVDVSEDDPDVQISWFVNNVEVHTAQTQTHREDYNSTLRVVSALPIQHQDWMSGKEFKCKVNNKDLPAPIERTISKPKGSVRAPQVYVLPPPEEEMTKKQVTLTCMVTDFMPEDIYVEWTNNGKTELNYKNTEPVLDSDGSYFMYSELRVEKKNWVERNSYSCSVVHEGLHNHHTTKSFSRTPGK
light: QSALTQPPSASGSPGQSVTISCEGPSTGVGDYNWVHWYQQHPGKAPKLMIYFTSKKPSGVPDRFSGSKSGNTASLTVSGLQAEDEADYYCQTYAAPLGPMFGGGTKLTVLGQPKSSPSVTLFPPSSEELETNKATLVCTITDFYPGVVTVDWKVDGTPVTQGMETTQPSKQSNNKYMASSYLTLTARAWERHSSYSCQVTHEGHTVEKSLSRADCS
notes: Mouse constant regions; also called other arm of SW1610-mFa55
As to B3, the Kd in test [1] came to 47 nM; in test [2], 13 nM; in test [3], 7.4 nM.

B4: 04H1654-mFa55m2P1/04L1612-ml0r (antibody, mouse IgG2a)
heavy: QVQLVESGGGVVQPGGSLRLSCAASGFTFSSKTMNWVRQAPGKGLEWVSSISTQSHYIYYARSVRGRFTISRDNAKNSLYLQMNSLRAEDTAVYYCARYGKREDMLWVFDYWGQGTLVTVSSAKTTAPSVYPLAPVCGDTTGSSVTLGCLVKGYFPEPVTLTWNSGSLSSGVHTFPAVLQSDLYTLSSSVTVTSSTWPSQSITCNVAHPASSTKVDKKIEPRGPTIKPCPPCKCPAPNLLGGPDVFIFPPKIKDVLMISLSPIVTCVVVDVSEDDPDVQISWFVNNVEVHTAQTQTHREDYNSTLRVVSALPIQHQDWMSGKEFKCKVNNKDLPAPIERTISKPKGSVRAPQVYVLPPPEEEMTKKQVTLTCMVTDFMPEDIYVEWTNNGKTELNYKNTEPVLRSDGSYFMYSKLRVEKKNWVERNSYSCSVVHEGLHNHHTTKSFSRTPGK
light: QSALTQPPSASGSPGQSVTISCEGPSTGVGDYTYVHWYQQHPGKAPKLMIYFTSKKPSGVPDRFSGSKSGNTASLTVSGLQAEDEADYYCQTYAAPLGPMFGGGTKLTVLGQPKSSPSVTLFPPSSEELETNKATLVCTITDFYPGVVTVDWKVDGTPVTQGMETTQPSKQSNNKYMASSYLTLTARAWERHSSYSCQVTHEGHTVEKSLSRADCS
notes: Mouse constant regions; also called one arm of SW1612-mFa55
As for B4, the dissociation constant Kd in test [1] is 94 nM; in test [2], 29 nM; in test [3], 12 nM.

B5: 04H1656-mFa55m2N1/04L1612-ml0r (antibody, mouse IgG2a)
heavy: QVQLVESGGGVVQPGGSLRLSCAASGFTFSSKTMNWVRQAPGKGLEWVSSISTQSHYIYYAESVRGRFTISRDNAKNSLYLQMNSLRAEDTAVYYCARYGAREDMLWVFDYWGQGTLVTVSSAKTTAPSVYPLAPVCGDTTGSSVTLGCLVKGYFPEPVTLTWNSGSLSSGVHTFPAVLQSDLYTLSSSVTVTSSTWPSQSITCNVAHPASSTKVDKKIEPRGPTIKPCPPCKCPAPNLLGGPDVFIFPPKIKDVLMISLSPIVTCVVVDVSEDDPDVQISWFVNNVEVHTAQTQTHREDYNSTLRVVSALPIQHQDWMSGKEFKCKVNNKDLPAPIERTISKPKGSVRAPQVYVLPPPEEEMTKKQVTLTCMVTDFMPEDIYVEWTNNGKTELNYKNTEPVLDSDGSYFMYSELRVEKKNWVERNSYSCSVVHEGLHNHHTTKSFSRTPGK
light: QSALTQPPSASGSPGQSVTISCEGPSTGVGDYTYVHWYQQHPGKAPKLMIYFTSKKPSGVPDRFSGSKSGNTASLTVSGLQAEDEADYYCQTYAAPLGPMFGGGTKLTVLGQPKSSPSVTLFPPSSEELETNKATLVCTITDFYPGVVTVDWKVDGTPVTQGMETTQPSKQSNNKYMASSYLTLTARAWERHSSYSCQVTHEGHTVEKSLSRADCS
notes: Mouse constant regions; also called other arm of SW1612-mFa55
Turning to B5, the Kd was found to be 67 nM in test [1], 20 nM in test [2] and 10 nM in test [3].

Values taken from patent US20260022175A1 (Chugai, published 2026).
